According to patent publication US20180038860A1 (published 2018):
Where two headings read alike, the source gives them in different places. Bridge positions count the residues as written; N and C are the ends. Side chains are listed from the residue outwards. * marks the point of attachment. Biotin = O=C1N[C@H]2[C@H](CS[C@H]2CCCCC(=O)*)N1; AEEA = NCCOCCOCC(=O)O

Tests used:
Experiment in all cases: cell-based or functional assay
hCCR9 (human) = hCCR9 (human) (UniProt P51686)
[1] = target: T1, CCR6 on lymphocytes in blood of healthy donors (human) (UniProt P51684)
T1 sequence (looked up): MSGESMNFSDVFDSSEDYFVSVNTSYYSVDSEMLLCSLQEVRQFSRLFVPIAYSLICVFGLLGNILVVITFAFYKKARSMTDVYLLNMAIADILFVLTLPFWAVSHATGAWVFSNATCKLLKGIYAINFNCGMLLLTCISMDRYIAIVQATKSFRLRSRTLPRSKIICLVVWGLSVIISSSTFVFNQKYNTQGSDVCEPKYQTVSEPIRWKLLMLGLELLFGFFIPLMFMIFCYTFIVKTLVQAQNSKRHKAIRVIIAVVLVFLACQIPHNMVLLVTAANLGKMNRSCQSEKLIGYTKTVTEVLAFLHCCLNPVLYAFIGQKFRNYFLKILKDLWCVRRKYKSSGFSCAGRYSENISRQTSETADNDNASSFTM

hCXCR3 (human) [2] = target: hCXCR3 (human) (UniProt P49682)
hCCR2b (human) = hCCR2b (human) (UniProt P41597)
hCCR6 (human) = target: T2, hCCR6 (human) (UniProt P51684)
T2 sequence (looked up): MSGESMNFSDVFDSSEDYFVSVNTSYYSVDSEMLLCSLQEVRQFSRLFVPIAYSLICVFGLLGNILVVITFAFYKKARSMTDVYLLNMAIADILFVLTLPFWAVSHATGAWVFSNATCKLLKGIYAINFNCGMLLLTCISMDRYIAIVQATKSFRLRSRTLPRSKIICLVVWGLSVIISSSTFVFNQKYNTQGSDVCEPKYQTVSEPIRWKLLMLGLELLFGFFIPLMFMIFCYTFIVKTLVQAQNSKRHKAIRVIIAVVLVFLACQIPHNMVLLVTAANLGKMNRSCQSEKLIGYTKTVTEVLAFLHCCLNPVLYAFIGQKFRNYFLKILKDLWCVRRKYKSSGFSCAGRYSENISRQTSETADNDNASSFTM

hCCR7 (human) = hCCR7 (human) (UniProt P32248)
hCCR4 = target: T3, hCCR4 (human, UniProt P51679 1-360)
T3 sequence (looked up): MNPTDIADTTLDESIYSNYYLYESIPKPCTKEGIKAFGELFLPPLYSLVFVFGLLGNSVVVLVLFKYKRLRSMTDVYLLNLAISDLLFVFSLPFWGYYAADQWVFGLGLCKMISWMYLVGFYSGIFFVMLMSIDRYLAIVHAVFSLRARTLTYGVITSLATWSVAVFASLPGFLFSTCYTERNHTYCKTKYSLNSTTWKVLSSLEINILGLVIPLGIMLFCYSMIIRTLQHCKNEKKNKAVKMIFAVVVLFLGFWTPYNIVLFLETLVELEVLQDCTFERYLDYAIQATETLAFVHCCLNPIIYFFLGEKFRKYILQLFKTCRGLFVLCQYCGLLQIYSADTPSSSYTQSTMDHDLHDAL

hCXCR3 (human) [3] = target: hCXCR3 (human) (UniProt P49682); remark: listed apart in the source
hCCR10 = target: T4, hCCR10 (human, UniProt P46092 1-362)
T4 sequence (looked up): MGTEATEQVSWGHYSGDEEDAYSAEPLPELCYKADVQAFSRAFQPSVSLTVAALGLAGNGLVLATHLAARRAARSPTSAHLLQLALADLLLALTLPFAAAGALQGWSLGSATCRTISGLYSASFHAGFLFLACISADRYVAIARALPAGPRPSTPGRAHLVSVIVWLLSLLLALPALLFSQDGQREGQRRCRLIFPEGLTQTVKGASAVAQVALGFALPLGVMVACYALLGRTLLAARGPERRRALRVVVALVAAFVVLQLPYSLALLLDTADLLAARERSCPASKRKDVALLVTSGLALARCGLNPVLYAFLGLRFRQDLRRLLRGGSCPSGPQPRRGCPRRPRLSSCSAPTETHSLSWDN

hCXCR3 (human), sequence (P49682 whole entry): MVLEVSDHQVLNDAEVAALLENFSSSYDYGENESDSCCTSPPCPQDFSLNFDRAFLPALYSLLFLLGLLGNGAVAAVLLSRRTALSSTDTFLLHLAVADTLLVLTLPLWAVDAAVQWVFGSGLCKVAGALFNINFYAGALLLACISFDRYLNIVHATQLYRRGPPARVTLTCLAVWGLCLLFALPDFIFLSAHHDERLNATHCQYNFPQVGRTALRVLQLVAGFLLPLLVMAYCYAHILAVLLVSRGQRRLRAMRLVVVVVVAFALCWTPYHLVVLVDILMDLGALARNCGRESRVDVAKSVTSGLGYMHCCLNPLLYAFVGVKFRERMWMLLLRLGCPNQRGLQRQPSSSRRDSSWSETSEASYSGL
hCCR9 (human), sequence (P51686 whole entry): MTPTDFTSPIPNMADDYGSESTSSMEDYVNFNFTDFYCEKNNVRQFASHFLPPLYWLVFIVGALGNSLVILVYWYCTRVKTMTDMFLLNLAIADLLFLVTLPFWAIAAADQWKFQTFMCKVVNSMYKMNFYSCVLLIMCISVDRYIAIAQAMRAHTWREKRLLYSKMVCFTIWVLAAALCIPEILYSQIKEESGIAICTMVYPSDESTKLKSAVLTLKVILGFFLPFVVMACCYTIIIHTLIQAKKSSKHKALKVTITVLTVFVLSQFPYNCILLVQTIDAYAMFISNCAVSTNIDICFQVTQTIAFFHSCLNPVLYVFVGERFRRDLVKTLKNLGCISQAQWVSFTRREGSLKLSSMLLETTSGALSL
hCCR2b (human), sequence (P41597 other isoform, or with tags, fused parts or gaps limits assumed): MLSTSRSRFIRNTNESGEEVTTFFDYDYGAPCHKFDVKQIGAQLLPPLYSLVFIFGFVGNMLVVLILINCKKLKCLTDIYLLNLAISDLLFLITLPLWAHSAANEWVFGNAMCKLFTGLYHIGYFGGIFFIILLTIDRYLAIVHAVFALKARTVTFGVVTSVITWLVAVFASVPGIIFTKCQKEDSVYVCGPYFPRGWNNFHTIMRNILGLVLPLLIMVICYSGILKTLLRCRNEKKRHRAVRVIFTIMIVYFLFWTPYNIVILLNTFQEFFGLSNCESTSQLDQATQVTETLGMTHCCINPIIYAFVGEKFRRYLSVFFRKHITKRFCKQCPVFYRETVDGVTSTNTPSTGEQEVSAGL
hCCR7 (human), sequence (P32248 25-378 limits assumed): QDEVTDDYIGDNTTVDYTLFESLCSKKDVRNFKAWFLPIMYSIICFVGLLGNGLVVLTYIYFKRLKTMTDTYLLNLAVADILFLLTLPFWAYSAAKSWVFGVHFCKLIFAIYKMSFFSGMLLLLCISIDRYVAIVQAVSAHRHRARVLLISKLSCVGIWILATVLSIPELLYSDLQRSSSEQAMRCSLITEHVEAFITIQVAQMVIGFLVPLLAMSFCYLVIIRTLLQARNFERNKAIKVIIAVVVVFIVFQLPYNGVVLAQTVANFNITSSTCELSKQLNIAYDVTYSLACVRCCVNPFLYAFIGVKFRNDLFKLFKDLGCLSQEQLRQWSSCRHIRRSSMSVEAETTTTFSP

With “biotinTECK(Met to Nleu substitution) (CCL25), derivatised at the ε-amino side chain functionality of Lys72 with PEG-Biotin (from UniProt O15444 25-97) (ligand)” the EC50, Aequorin assay (agonist activity) (hCCR9 (human)) was 63.6 nM.

“biotinylated MIP-3alpha coupled matrix (from UniProt P78556 27-96) (ligand)” showed a reduction of CCR6-expressing cells after column passage (flow cytometry) [1] of less than 15%.

With “recombinant native IP-10 (from UniProt P02778 22-98) (ligand)” the EC50, Aequorin assay (agonist activity) (hCXCR3 (human) [2]) was 4.4 nM.

“recombinant native MCP-2 (from UniProt P80075 24-99) (ligand)” was tested, and the EC50, Aequorin assay (partial agonist) (hCCR2b (human)) was 23.5 nM.

Molecule “recombinant native MIP-3α (from UniProt P78556 27-96) (ligand)” has an EC50, Aequorin assay (agonist activity) (hCCR6 (human)) of 1 nM.

With “recombinant native MIP-3β (from UniProt Q99731 22-98) (ligand)” the EC50, Aequorin assay (agonist activity) (hCCR7 (human)) was 1.6 nM.

For “recombinant native TARC (from UniProt Q92583 24-94) (ligand)”, the EC50, Aequorin assay (agonist activity) (hCCR4) was 2.6 nM.

Work on “recombinant native TECK (from UniProt O15444 24-150) (ligand)” yielded an EC50, Aequorin assay (agonist activity) (hCCR9 (human)) of 67.9 nM.

B1: recombinant native ITAC (ligand, UniProt O14625 22-94, looked up)
chain: FPMFKRGRCLCIGPGVKAVKVADIEKASIMYPSNNCDKIEVIITLKENKGQRCLNPKSKQARLIIKKVERKNF
B1 gave an EC50, Aequorin assay (agonist activity) (hCXCR3 (human) [3]) of 0.7 nM.

B2: recombinant native CTAC (ligand, UniProt Q9Y4X3 25-112, looked up)
chain: FLLPPSTACCTQLYRKPLSDKLLRKVIQVELQEADGDCHLQAFVLHLAQRSICIHPQNPSLSQWFEHQERKLHGTLPKLNFGMLRKMG
B2 was tested, and the EC50, Aequorin assay (agonist activity) (hCCR10) was 33.5 nM.

B3: recombinant native MDC (ligand, UniProt O00626 25-93, looked up)
chain: GPYGANMEDSVCCRDYVRYRLPLRVVKHFYWTSDSCPRPGVVLLTFRDKEICADPRVPWVKMILNKLSQ
B3 was tested, and the EC50, Aequorin assay (agonist activity) (hCCR4) was 3.6 nM.

B4: biotinTARC (CCL17), TARC derivatised at the ε-amino side chain functionality of Lys(72) with PEG-Biotin (ligand)
chain: ARGTNVGRECCLEYFKGAIPLRKLKTWYQTSEDCSRDAIVFVTVQGRAICSDPNNKRVKNAVKYLQSLERSK([AEEA-Biotin])-NH2
modifications: disulfide 10-34, 11-50; ends not checked; also: TFA salt
In the case of B4, the “EC50, Aequorin assay (agonist activity)” value (hCCR4) is reported as 3.1 nM.

B5: biotinCTAC (CCL27), CTAC derivatised at the ε-amino side chain functionality of Lys(87) with PEG-Biotin (ligand)
chain: FLLPPSTACCTQLYRKPLSDKLLRKVIQVELQEADGDCHLQAFVLHLAQRSICIHPQNPSLSQWFEHQERKLHGTLPKLNFGMLRKK([AEEA-Biotin])G-OH
modifications: disulfide 10-53, 9-38; ends not checked; also: TFA salt
For B5, the “EC50, Aequorin assay (agonist activity)” value (hCCR10) was 49.4 nM.
